Assay results taken from PMC9434101 (The EMBO Journal, 2022).
Ends that are not written are not given here.

Key:
[1] = target: T1, 6xHis-tagged AIFM1(103–613) (UniProt O95831 103-613); experiment: ITC
[2] = target: T1, 6xHis-tagged AIFM1(103–613); experiment: ITC; remark: listed apart in the source

T1 sequence (O95831 103-613): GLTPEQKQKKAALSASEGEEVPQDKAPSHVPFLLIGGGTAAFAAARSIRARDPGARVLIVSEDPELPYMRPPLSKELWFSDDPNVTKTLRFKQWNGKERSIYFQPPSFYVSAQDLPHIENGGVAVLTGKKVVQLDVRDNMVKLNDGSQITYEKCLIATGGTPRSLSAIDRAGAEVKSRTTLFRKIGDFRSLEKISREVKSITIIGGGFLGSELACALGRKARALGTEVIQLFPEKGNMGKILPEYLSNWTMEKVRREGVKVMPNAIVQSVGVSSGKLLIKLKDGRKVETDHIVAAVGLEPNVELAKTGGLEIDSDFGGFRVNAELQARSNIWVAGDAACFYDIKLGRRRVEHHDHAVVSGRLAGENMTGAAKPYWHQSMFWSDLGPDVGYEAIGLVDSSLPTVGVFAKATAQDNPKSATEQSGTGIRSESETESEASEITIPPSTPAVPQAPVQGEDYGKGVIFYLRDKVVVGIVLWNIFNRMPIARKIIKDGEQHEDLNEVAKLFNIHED

## GSEGKDRIIFVTKEDHETPSSAEL-NH2 [CHCHD4/MIA40 peptide (unlabeled), GSEGKDRIIFVTKEDHETPSSAEL-NH2]
[1]
  Kd: 2940 nM

B1: recombinant full-length MIA40/CHCHD4^C4S,C53S,C55S (natural protein)
chain: MSYSRQEGKDRIIFVTKEDHETPSSAELVADDPNDPYEEHGLILPNGNINWNSPSLGGMASGPCGEQFKSAFSCFHYSTEEIKGSDCVDQFRAMQECMQKYPDLYPQEDEDEEEEREKKPAEQAEETAPIEATATKEEEGSS
[2]
  stoichiometry N: 2 AIFM1 per MIA40/CHCHD4
